Results published in publication PMC10646984 (Biomacromolecules, 2023).

T1: Gal-8 (Homo sapiens, UniProt O00214)
T1 construct: made in house; host or cells: Escherichia coli Rosetta 2(DE3)pLysS
T1 sequence (O00214 1-317): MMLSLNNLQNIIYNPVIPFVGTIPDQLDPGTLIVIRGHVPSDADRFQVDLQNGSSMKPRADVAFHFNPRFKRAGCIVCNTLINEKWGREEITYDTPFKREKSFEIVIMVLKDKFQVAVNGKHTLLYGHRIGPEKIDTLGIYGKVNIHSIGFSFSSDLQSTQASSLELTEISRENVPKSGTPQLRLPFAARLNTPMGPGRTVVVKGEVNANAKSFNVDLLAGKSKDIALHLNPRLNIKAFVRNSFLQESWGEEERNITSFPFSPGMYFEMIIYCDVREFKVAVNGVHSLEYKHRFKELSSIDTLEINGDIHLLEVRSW

T2: asialofetuin (ASF; a glycoprotein terminated with LacNAc moieties) (UniProt P12763 19-359, glycoprotein terminated with LacNAc moieties (desialylated glycans))
T2 construct: asialofetuin, the desialylated form of fetuin
T2 sequence (looked up): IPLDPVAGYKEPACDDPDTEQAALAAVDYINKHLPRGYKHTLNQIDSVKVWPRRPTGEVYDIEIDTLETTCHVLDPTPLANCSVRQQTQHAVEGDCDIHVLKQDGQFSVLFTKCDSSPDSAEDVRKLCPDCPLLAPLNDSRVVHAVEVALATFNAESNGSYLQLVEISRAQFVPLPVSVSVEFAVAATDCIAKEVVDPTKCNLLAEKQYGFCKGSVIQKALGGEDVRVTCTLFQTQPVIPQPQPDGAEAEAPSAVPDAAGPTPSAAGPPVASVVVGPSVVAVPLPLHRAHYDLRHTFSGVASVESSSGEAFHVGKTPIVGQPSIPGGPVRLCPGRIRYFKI

B1: Recombinant human galectin-8 (Gal-8) with a full-length peptide linker of 34 aa, N-terminal His-tagged (natural protein, UniProt O00214 1-317, looked up)
chain: T1 sequence (O00214 1-317)
notes: galectin-8 (tandem repeat), human; contains a full-length peptide linker of 34 aa (3717 Da); ca. 36 kDa; cloned in pET-Duet1 (AscI/NotI); plasmid a gift from Prof; L. Elling; source: E. coli Rosetta 2(DE3)pLysS, purified (Ni-NTA); not shown: His tag, N-terminal, kept

Key:
[1] = target: T1, Gal-8; assay: competitive ELISA with immobilized asialofetuin (ASF), Gal-8; format: binding; conditions: 1 μM Gal-8, immobilized ASF, DMSO co-solvent
Description: (§1) The inhibitory potential of prepared Lac-CS-DDMs toward Gal-1, Gal-3, Gal-8, and Gal-9 was determined using a competitive ELISA assay with immobilized asialofetuin (ASF; a glycoprotein terminated with LacNAc moieties).[41] ASF (0.1 μM in PBS, 50 μL/well) was coated in microtiter plates (Nunc Immuno Sorb, Thermo Fisher Scientific, USA) and incubated overnight. Then, the wells were washed with 3 × 250 μL of PBS buffer containing 0.05% Tween; this washing step followed each incubation step. The wells were then blocked with 2 mg/mL BSA in PBS buffer (250 μL/well) and incubated for 1 h. […] The reaction was stopped by adding 3 M HCl (50 μL per well), accompanied by a color shift to yellow as determined spectrophotometrically by an absorbance microplate reader (Sunrise Tecan Group Ltd., CH). […] A background value, as a mean of the negative control wells containing buffer instead of galectin/ligand, with an absorbance of ca. 0.05–0.075 was subtracted from the measured absorbances. The values of half maximal inhibitory constants (IC50) were calculated from the non-linear regression (dose–response inhibition-variable slope) of the sigmoidal curves using GraphPad Prism 7 (GraphPad Software, USA) from at least three independent experiments with at least two different galectin batches. […]

[2] = target: T3, Gal-9 (Homo sapiens, UniProt O00182, A222P/DEL149-219); assay: competitive ELISA with immobilized asialofetuin (ASF), Gal-9; format: binding; conditions: 1 μM Gal-9, immobilized ASF, DMSO co-solvent
T3 construct: made in house; host or cells: Escherichia coli Rosetta 2(DE3)pLysS
Description: as §1

[3] = target: T4, Gal-1 (Homo sapiens, UniProt P09382, C3S); assay: direct binding ELISA of galectin to immobilized ASF, Gal-1
T4 construct: made in house; host or cells: Escherichia coli Rosetta 2(DE3)pLysS

[4] = target: T5, Gal-3 (Homo sapiens, UniProt P17931); assay: direct binding ELISA of galectin to immobilized ASF, Gal-3
T5 construct: made in house; host or cells: Escherichia coli Rosetta 2(DE3)pLysS

[5] = target: T1, Gal-8; assay: direct binding ELISA of galectin to immobilized ASF, Gal-8
[6] = target: T3, Gal-9; assay: direct binding ELISA of galectin to immobilized ASF, Gal-9
[7] = DLS hydrodynamic diameter of single components (galectins, Lac-CS-DDMs); format: physicochemical; conditions: single component 10 μM in PBS, 25 °C
Description: The hydrodynamic diameter of the nanoparticles of galectins, Lac-CS-DDMs, and their aggregates was measured by dynamic light scattering (DLS) using a Zetasizer Nano ZS (Malvern Instruments Ltd., UK) at 25 °C in Malvern disposable plastic microcuvettes (100 μL sample volume). The light scattered at 173° from the incident light was fitted to an autocorrelation function using the method of cumulants (Malvern Instruments Ltd., UK). Commercial sterile PBS was used for sample preparation. […] Mixtures of components were incubated for 90 min at room temperature. The samples were vortexed prior to measurements. The hydrodynamic diameters were determined from five independent repetitions (each 10–50 runs). Multimodal intensity-weighted particle size distribution was used for data analysis.
DLS experiments on the A series of Lac-CS-DDMs and G3-B-AcLac32 were performed to provide insight into the complexity of multivalent galectin/Lac-CS-DDM interactions (Table 2). Unlike ELISA assays that simulate competitive binding on the cell surface, DLS is a straightforward method to evaluate non-surface bound multivalent assemblies.[71] Thus, it is interesting to relate the data obtained by these two methods. Since the transformation of intensity-weighted size distribution to volume-weighted size distribution requires information on the refractive index and absorption of the formed particles and assumes their homogeneity and spherical shape,[72] all presented data come from the analysis of the multimodal intensity-weighted size distribution. As the scattering intensity correlates with the particle diameter to the sixth power, whereas the mass only to the third power, the abundance of larger particles is overestimated at the expense of the smaller ones with respect to the real sample composition, especially in the case of polydisperse samples with multiple size populations.[73] This means that, due to the presence of large aggregates, the particles smaller by orders of magnitude present in the sample may not be detected. Despite the above bottlenecks, we believe that using the size-to-intensity plot is the most appropriate as it is highly sensitive to a starting aggregation, which may be undetectable in the size-to-volume distribution, and it is well suited to compare results between different galectins and Lac-CS-DDM generations to address general differences and trends in their aggregation behavior.

[8] = target: asialofetuin (ASF; a glycoprotein terminated with LacNAc moieties) (UniProt P12763); assay: ELISA; direct binding: ASF (0.1 μM in PBS) coated on the plate, serial dilution of the galectin in EPBS (2 mM EDTA in PBS), bound galectin detected with anti-His antibody-HRP
[9] = target: T2, asialofetuin (ASF; a glycoprotein …); assay: as above; conditions: both partners purified

T3 sequence (O00182 with tags, fused parts or gaps DEL149-219/A222P): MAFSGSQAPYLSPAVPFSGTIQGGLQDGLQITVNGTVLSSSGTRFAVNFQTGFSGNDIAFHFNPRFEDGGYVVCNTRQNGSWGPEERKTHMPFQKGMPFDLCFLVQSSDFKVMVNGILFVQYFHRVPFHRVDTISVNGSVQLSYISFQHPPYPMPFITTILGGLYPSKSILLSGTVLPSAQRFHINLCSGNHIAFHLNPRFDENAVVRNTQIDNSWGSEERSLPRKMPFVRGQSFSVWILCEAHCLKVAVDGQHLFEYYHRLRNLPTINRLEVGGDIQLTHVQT
T4 sequence (P09382 whole entry C3S): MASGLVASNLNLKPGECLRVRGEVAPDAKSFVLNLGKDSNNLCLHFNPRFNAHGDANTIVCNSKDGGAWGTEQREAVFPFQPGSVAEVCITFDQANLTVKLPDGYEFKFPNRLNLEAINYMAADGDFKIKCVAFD
T5 sequence (P17931 whole entry): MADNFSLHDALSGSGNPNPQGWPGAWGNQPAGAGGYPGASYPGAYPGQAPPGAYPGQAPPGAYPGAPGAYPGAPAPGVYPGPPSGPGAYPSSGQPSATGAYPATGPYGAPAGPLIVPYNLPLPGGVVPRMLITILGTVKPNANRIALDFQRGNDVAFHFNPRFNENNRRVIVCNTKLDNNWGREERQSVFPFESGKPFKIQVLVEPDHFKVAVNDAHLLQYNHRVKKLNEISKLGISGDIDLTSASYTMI

Row | Molecule | PI (polydispersity index) [7] | hydrodynamic diameter, aggregates >0.5 μm [7] [μm] | hydrodynamic diameter, small particles <50 nm (first fraction) [7] [nm] | intensity-weighted abundance, aggregates >0.5 μm [7] [%] | intensity-weighted abundance, small particles <50 nm (first fraction) [7] [%] | also measured
1 | OC[C@H]1O[C@@H](O[C@H]2[C@H](O)[C@@H](O)C(O)O[C@@H]2CO)[C@H](O)[C@@H](O)[C@H]1O (mixture of isomers) [lactose] |  |  |  |  |  | IC50 [1]: 1680 ± 420 µM; IC50 [2]: 1350 ± 440 µM
2 | ASF: asialofetuin, a glycoprotein terminated with LacNAc moieties, immobilized competitor in ELISA |  |  |  |  |  | Kd [3]: 4.4 µM; Kd [4]: 3.2 µM; Kd [5]: 0.37 µM; Kd [6]: 0.3 µM
3 | Gal-1: recombinant human galectin-1, N-terminal His-tagged, C2S mutation | 0.4 | 1.2 ± 0.5 | 1.3 ± 0.1 | 32 | 47 | hydrodynamic diameter, small particles <50 nm (second fraction) [7]: 19.0 ± 6.0 nm; intensity-weighted abundance, small particles <50 nm (second fraction) [7]: 21%
4 | Gal-3: recombinant human galectin-3, N-terminal His-tagged | 0.6 | 1.1 ± 0.1 | 7.9 ± 1.4 | 13 | 36 | hydrodynamic diameter, aggregates >0.1 μm [7]: 0.4 ± 0.1 μm; intensity-weighted abundance, aggregates >0.1 μm [7]: 40%
5 | Gal-8: recombinant human galectin-8, N-terminal His-tagged, full-length peptide linker of 34 aa | 0.7 | 1.4 ± 0.3 | 5.4 ± 0.5 | 80 | 20 | 
6 | Recombinant human galectin-1 (Gal-1) with mutation C2S, N-terminal His-tagged (natural protein) |  |  |  |  |  | Kd [8]: 4.4 µM
7 | Recombinant human galectin-9 (Gal-9) with a truncated mutated peptide linker HPPYPMPF, N-terminal His-tagged (natural protein) |  |  |  |  |  | Kd [8]: 0.3 µM
8 | B1 |  |  |  |  |  | Kd [9]: 0.37 µM
